The data set deals with the molecule itself. Description: SDS-PAGE and western blot; purified MOMP in SDS loading buffer, all samples heated and reduced; NuPAGE gel; blot with anti-CtE EB mouse sera; SDS-resistant dimeric and oligomeric forms. A general note: A western blot detects proteins with antibodies after separation by electrophoresis.

The source of these data is article PMC4963994, “Recombinant expression of Chlamydia trachomatis major outer membrane protein in E. Coli outer membrane as a substrate for vaccine research” (BMC Microbiology, 2016).

B1: recombinant C. trachomatis Serovar E major outer membrane protein, expressed in the E. coli outer membrane with a PelB leader and purified (natural protein)
chain: LPVGNPAEPSLMIDGILWEGFGGDPCDPCTTWCDAISMRMGYYGDFVFDRVLKTDVNKEFQMGDKPTSTTGNATAPTTLTARENPAYGRHMQDAEMFTNAACMALNIWDRFDVFCTLGASSGYLKGNSASFNLVGLFGDNENQSTVKTNSVPNMSLDQSVVELYTDTAFSWSVGARAALWECGCATLGASFQYAQSKPKVEELNVLCNAAEFTINKPKGYVGQEFPLALIAGTDAATGTKDASIDYHEWQASLALSYRLNMFTPYIGVKWSRASFDADTIRIAQPKSATAIFDTTTLNPTIAGAGDVKASAEGQLGDTMQIVSLQLNKMKSRKSCGIAVGTTIVDADKYAVTVETRLIDERAAHVNAQFRF
notes: Major outer membrane protein (MOMP), C. trachomatis strain E/12-94 Serovar E, ORF O175_03780; also called rCtE-MOMP; rMOMP
For B1, the binding result is reported as “binds”.
